Laboratory results reported in the supplement of paper PMC12783771.
± gives the standard deviation of the averaged measurements.

B1: library; numbered along this chain (parent)
chain: MNIQIGELAKRTACPVVTIRFYEQEGLLPPPGRSRGNFRLYGEEHVERLQFIRHCRSLDMPLSDVRTLLSYRKRPDQDCGEVNMLLDEHIRQVESRIGALLELKHHLVELREACSGARPAQSCGILQGLSDCVCDTRGTTAHPSD

How the values were obtained:
[1] = variants of: B1; assay: sfGFP reporter fluorescence (15 h) (µM FITC); higher = higher leak; settings: library round: Round 1; ligand: none
How it was run: (§1)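 Values are endpoint sfGFP fluorescence given as µM FITC equivalents. Fluorescence was read at 485/528 nm on a Synergy Neo2, and FITC standard curves were prepared in 50 mM sodium borate pH 8.5. Reactions of 1 μL combined BL21 Star (DE3) PANOx-SP extract, pPbrR-sfGFP reporter, 30 μg/mL GamS and linear PbrR templates (PCR-made, Echo-normalized to 5 nM), with 1 µM lead chloride, 30 µM zinc acetate or no metal, for 15 hr at 30 °C.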

[2] = variants of: B1; assay: sfGFP reporter fluorescence (15 h) (µM FITC); higher = stronger transcriptional activation; settings: library round: Round 1
How it was run: as §1

Row | Variant | sfGFP reporter fluorescence [1] | sfGFP reporter fluorescence ([2]; ligand: 1 µM Pb) | sfGFP reporter fluorescence ([2]; ligand: 30 µM Zn)
1 | MNIQIGELAKRTACPVVTIRFYEQEGLLPPPGRSRGNFRLYGEEHVERLQFIRHCRSLDMPLSDVRTLLSYRKRPDQDCGEVTMLLDEHIRQVESRIGALLELKHHLVELAEACSGARPAQSCGILQGLSDCVCDTRGTTAHPSD | 0.0564 ± 0.00097 | 0.0834 ± 0.0021 | 0.341 ± 0.031
2 | MNIQIGELAKRTACPVVTIRFYEQEGLLPPPGRSRGNFRLYGEEHVERLQFIRHCRSLDMPLSDVRTLLSYRKRPDQDCGEVTMLLDEHIRQVESRIGALLELKHHLVELDEACSGARPAQSCGILQGLSDCVCDTRGTTAHPSD | 0.0624 ± 0.00076 | 0.06 ± 0.0029 | 0.068 ± 0.0024
3 | MNIQIGELAKRTACPVVTIRFYEQEGLLPPPGRSRGNFRLYGEEHVERLQFIRHCRSLDMPLSDVRTLLSYRKRPDQDCGEVNMLLDEHIRQVESRIGALLELVHHLVELDEACSGARPAQSCGILQGLSDCVCDTRGTTAHPSD | 0.0612 ± 0.0019 | 0.0619 ± 0.0015 | 0.0723 ± 0.0033
4 | MNIQIGELAKRTACPVVTIRFYEQEGLLPPPGRSRGNFRLYGEEHVERLQFIRHCRSLDMPLSDVRTLLSYRKRPDQDCGEVTMLLDEHIRQVRSRIGALLELKHHLVELREACSGARPAQSCGILQGLSDCVCDTRGTTAHPSD | 0.0643 ± 0.0013 | 0.0792 ± 0.002 | 0.128 ± 0.0019
5 | MNIQIGELAKRTACPVVTIRFYEQEGLLPPPGRSRGNFRLYGEEHVERLQFIRHCRSLDMPLSDVRTLLSYRKRPDQDCGEVNMLLDEHIRQVESRIGALLELKHHLVELLEACSGARPAQSCGILQILSDCVCDTRGTTAHPSD | 0.0666 ± 0.0024 | 0.0985 ± 0.0091 | 0.528 ± 0.024
6 | MNIQIGELAKRTACPVVTIRFYEQEGLLPPPGRSRGNFRLYGEEHVERLQFIRHCRSLDMPLSAVRTLLSYRKRPDQDCGEVNMLLDEHIRQVESRMGALLELKHHLVELREACSGARPAQSCGILQGLSDCVCDTRGTTAHPSD | 0.0644 ± 0.002 | 0.0781 ± 0.0023 | 0.507 ± 0.02
7 | MNIQIGELAKRTACPVVTIRFYEQEGLLPPPGRSRGNFRLYGEEHVERLQFIRHCRSLDMPLSDVRTLLSYRKRPDQDCGEVNMLLDEHIRQVESRIGALLELKHHLVELREACSGARPAQSCGILQAMSDCVCDTRGTTAHPSD | 0.0617 ± 0.0017 | 0.0701 ± 0.0044 | 0.257 ± 0.034
8 | MNIQIGELAKRTACPVVTIRFYEQEGLLPPPGRSRGNFRLYGEEHVERLQFIRHCRSLDMPLSDVRTLLSYRKRPDQDCGEVTMLLDEHIRQVESRIGALLELKHHLVEWREACSGARPAQSCGILQGLSDCVCDTRGTTAHPSD | 0.0601 ± 0.0015 | 0.0593 ± 0.0024 | 0.0597 ± 0.00097
9 | MNIQIGELAKRTACPVVTIRFYEQEGLLPPPGRSRGNFRLYGEEHVERLQFIRHCRSLDMPLSIVRTLLSYRKRPDQDCGEVNMLLDEHIRQVESRIGALLELKHHLVELREACSGARPAQSCGILQGLSDCVCTTRGTTAHPSD | 0.164 ± 0.02 | 0.514 ± 0.04 | 1.63 ± 0.29
10 | MNIQIGELAKRTACPVVTIRFYEQEGLLPPPGRSRGNFRLYGEEHVERLQFIRHCRSLDMPLSDVRTLLSYRKRPDQDCGEVTMLLDEHIRQVESRIGALLELKHHLVELREACSGARPAQSCGILQGLSDCVCFTRGTTAHPSD | 0.0665 ± 0.00076 | 0.0911 ± 0.014 | 0.435 ± 0.062
11 | MNIQIGELAKRTACPVVTIRFYEQEGLLPPPGRSRGNFRLYGEEHVERLQFIRHCRSLDMPLSDVRTLLSYRKRPDQDCGEVTMLLDEHIRQVESRIGALLELKHHLVELREACSGARPAQSCGILQGLSDCVCDTRGTTAHRSD | 0.0618 ± 0.0013 | 0.0709 ± 0.0047 | 0.145 ± 0.0075
12 | MNIQIGELAKRTACPVVTIRFYEQEGLLPPPGRSRGNFRLYGEEHVERLQFIRHCRSLDMSLSDVRTLLSYRKRPDQDCGEVNMLLDEHIRQVESRIGALLELKHHLVELREACSGARPAQSCGILQILSCCVCDTRGTTAHPSD | 0.12 ± 0.0019 | 0.286 ± 0.053 | 1.25 ± 0.2
13 | MNIQIGELAKRTACPVVTIRFYEQEGLLPPPGRSRGNFRLYGEEHVERLQFIRHCRSLDLPLSKVRTLLSYRKRPDQDCGEVNMLLDEHIRQVESRIGALLELKHHLVELREACSGARPAQSCGILQGLSCCVCDTRGTTAHPSD | 0.344 ± 0.036 | 0.896 ± 0.29 | 2.2 ± 0.15
14 | MNIQIGELAKRTACPVVTIRFYEQEGLLPPPGRSRGNFRLYGEEHVERLQFIRHCRSLDMPLSTVRTLLSYRKRPDQDCGEVNMLLDEHIRQVESRIGALLELKHHLVELREACSGARPAQSCGILQILSDCVCATRGTTAHPSD | 0.4487 ± 0.003 | 0.801 ± 0.052 | 2.35 ± 0.3
